Target: the molecule itself
Experiment: atomic force microscopy; S-layer (glyco)protein at 50 ug/mL recrystallized on gold-coated SPR and QCM-D sensor surfaces; lattice imaged in contact mode in a liquid cell under 100 mM NaCl

B1: recombinant S-layer protein rSgsE(131-903), 130 amino acid N-terminal truncation of SgsE (domain or fragment, UniProt Q8VTF1 131-903, looked up)
chain: ATKLDKMRQELKAAVDAKDLKKAEELYHKISYELKTRTVILDRVYGQSTRELLRSTFKADAQALRDSLIYDITVAMKAREAQDAVKAGNLDKAKAALDQVNQYVSKVTDAFKAELQKAAQDAKAAYEAALPPKVESVTAVNAKTLEIKFNKAVDAATVIDNKGTSDTSDDVVKATAITLKAIDDQVPVSTVKASLSDDKKTLKLVVDGAQFFTKRYVVDIKNVKTLDGKDVPAYTTTIDTTDSVRPSVLSFSYADNGLTLKVKFSEPLASVGTVKLYDGTTEISVSPKFTAGDDEMTINLASSSVPVNKDLTLKIFGAVDYNGNVINPNPAELTVKKTTVDITKPVVQSIEAVNTKTVKVTFSEKLLSAPTIKIGGQTASVSVDSTGLVYTATLASALSKGVYAVEVSDYKDLAGNSGDAYTKVVQLKADNTAPKFVSSQVVKINGVEHLVLTFDEEVTTGSNITVVQSSDKYIDENNVLKAVGADLKTTSDNFKLYLPTDGKSKSVALNISSLPKGTYTVTLPNGLVSDLADNPYAERKQITFVRGSDSLTTKPALDKDYDSNGVKADNNNELVFAFTQNLDASALNLSNFNINGLTVTKAVFDGDTKHIRVTLAPGANTWTGTHVITISNIKNTSGLVMDTVTVNEYMKENVAPTFTATLTSADVIRVDFSEPVANATISRALSANNFIVKVDGNVVTVSNVYEDNNATNLVQGSKGYKTVYLKLQSPVTDLSKPITLSATDIVDVNQTGAITDNNVVGNNVSATVVNVAK
notes: S-layer protein SgsE of Geobacillus stearothermophilus NRS 2004/3a, residues 131-903; non-glycosylated; calculated molecular weight 82,800 Da; also called recombinantly produced non-glycosylated form of SgsE; source: E. coli BL21 Star (DE3), purified
- binding result: binds

— PMC4414373, “Relevance of glycosylation of S-layer proteins for cell surface properties” (Acta Biomaterialia, 2015)
